Test system: MS2 coat protein
Assay: apparent KD of MS2 coat protein; designed switch direction (-1 OFF switch, 1 ON switch): 1; higher = weaker reporter binding
Summary of the method: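 Stalled E. coli RNA polymerase transcribed designed RNA switches on Illumina chips, which were then titrated with SNAP-549-labelled MS2 coat protein, doubling from 0.7 or 1.5 nM to 3 µM. Steps lasted from 0.8–1.5 h at the lowest concentration to 10–20 min at the highest. The apparent KD is each design's median over clusters of curve-fitted normalised fluorescence.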

[1] = Eterna round: R95, input ligand: FMN 200 uM
[2] = Eterna round: R95, input ligand: microRNA oligo, concentration not stated
[3] = Eterna round: R95, input ligand: none
[4] = input ligand: microRNA oligo, concentration not stated

For “AAAGUACAUGAGGAUCACCCAUGUCCAAAAAAGUAAGGAUAUGUGGUGCGACUACGAAACACAGAAGGUACAAAAA [Malcolm Mod] (puzzle: Same State 1)”, which “apparent KD of MS2 coat protein” value [1] is on record?
The value was 30.1 nM.

What about the “apparent KD of MS2 coat protein” value [2] of the same sequence?
The value was 13.3 nM.

And the “apparent KD of MS2 coat protein” value [3]?
Its value is 81.2 nM.

For “AACAAAUACACAGGAUAUACAGCGGCAGCCACUGUAGAAGGGUGGGCGGGUUCCAACAUGAGGAUCACCCAUGUACCCAAUAAA [Gerace] (Eterna round: R96, puzzle: Same State NG 1)”, which “apparent KD of MS2 coat protein” value (input ligand: FMN 200 uM) is on record?
The value was 161 nM.

What about the “apparent KD of MS2 coat protein” value [4] of the same sequence?
Its value is 234 nM.

And the “apparent KD of MS2 coat protein” value (input ligand: none)?
Its value is 699 nM.

“AACAAGUUUUUGCUCGCUUAUAAGCAUGUACAUGAGGAUCACCCAUGUCAUGUACAAAGUCCAGCCUGAGCUGGACA [Reversing mir to lane 1] (puzzle: Sensor for hsa-mir-208a)” was tested. Which “apparent KD of MS2 coat protein” value [1] did it give?
The value was 24.5 nM.

And the “apparent KD of MS2 coat protein” value [2]?
Its value is 15.5 nM.

What about the “apparent KD of MS2 coat protein” value [3] of the same sequence?
The value was 25.4 nM.

Which “apparent KD of MS2 coat protein” value [4] does the source give for “AACAAUCUAUCUGAGGAUAUCAUGAAAAAAACAUGAGGAUCACCCAUGUGCAGGAAAACUGCAUAUGAGAAGGCAGAUAGAUUGC [salish99_SS2_r3_004] (Eterna round: R96, puzzle: Same State 2)” here?
The value was 504 nM.

With “AACAAUCUAUCUGAGGAUAUCAUGAAAAAAACAUGAGGAUCACCCAUGUGCAGGAAAACUGCAUAUGAGAAGGCAGAUAGAUUGC [salish99_SS2_r3_004] (puzzle: Same State 2)” as the sequence, how does the “apparent KD of MS2 coat protein” value [1] read?
The value was 32.5 nM.

And the “apparent KD of MS2 coat protein” value [2]?
Its value is 785 nM.

What about the “apparent KD of MS2 coat protein” value [3] of the same sequence?
Its value is 1690 nM.

For “AACAAUCUAUCUGAGGAUAUCAUGAAAUAAACAUGAGGAUCACCCAUGUGCUGGAAAACUGCAUAUGAGAAGGCAGAUAGAUUGA [salish99_ss2_r3_037] (puzzle: Same State 2)”, which “apparent KD of MS2 coat protein” value [1] is on record?
The value was 32.1 nM.

What about the “apparent KD of MS2 coat protein” value [2] of the same sequence?
Its value is 237 nM.

What about the “apparent KD of MS2 coat protein” value [3] of the same sequence?
The value was 395 nM.

How did the “apparent KD of MS2 coat protein” value [1] turn out when “AACAAUCUUUCUGAGGAUAUCAUGAAAUAAACAUGAGGAUCACCCAUGUGCAGGAAAACUGCAUAUGAGAAGGCAGAUAGAUUGA [salish99_ss2_r3_024] (puzzle: Same State 2)” was run?
Its value is 43.3 nM.

What about the “apparent KD of MS2 coat protein” value [2] of the same sequence?
Its value is 414 nM.

What about the “apparent KD of MS2 coat protein” value [3] of the same sequence?
The value was 1220 nM.

“AACAAUUAACAUGAGGAUCACCCAUGUAUUACUUCGUGUUUUUGCUCGUCUUAUGUUAGGUUCGAUAGAGCUUAACA [Improved] (puzzle: Sensor for hsa-mir-208a version 2)” was tested. Which “apparent KD of MS2 coat protein” value [1] did it give?
Its value is 42.4 nM.

What about the “apparent KD of MS2 coat protein” value [2] of the same sequence?
The value was 12.6 nM.

And the “apparent KD of MS2 coat protein” value [3]?
The value was 44.9 nM.

How did the “apparent KD of MS2 coat protein” value (input ligand: FMN 200 uM) turn out when “AACAGACAUGAGGAUCACCCAUGUAGAAUUAUGGGAGGAUAUACAAAGACGAGAGUCAGAGUAGAAGGCCUAGGAC [salish99-ss1-163] (Eterna round: R96, puzzle: Same State 1)” was run?
The value was 24.3 nM.

And the “apparent KD of MS2 coat protein” value [4]?
Its value is 42.2 nM.

And the “apparent KD of MS2 coat protein” value (input ligand: none)?
The value was 51.7 nM.

“AACAGUCGGCGAGGAUAUGGACAUACGGACUAACCCGUAUGGCUCACAUGAGGAUCACCCAUGUUCUAGAAGGCGCCACUGAAA [Raridi] (Eterna round: R96, puzzle: Same State NG 2)” was tested. Which “apparent KD of MS2 coat protein” value (input ligand: FMN 200 uM) did it give?
The value was 14.6 nM.

What about the “apparent KD of MS2 coat protein” value [4] of the same sequence?
Its value is 43.4 nM.

What about the “apparent KD of MS2 coat protein” value (input ligand: none) of the same sequence?
The value was 74 nM.

“AACAGUCGGCGAGGAUAUGGACGUACGGACUAACCCGUGCAGCUCACAUGAGGAUCACCCAUGUUCUAGAAGGCGCCACUGAAA [Onesusatza] (Eterna round: R96, puzzle: Same State NG 2)” was tested. Which “apparent KD of MS2 coat protein” value (input ligand: FMN 200 uM) did it give?
The value was 15.9 nM.

And the “apparent KD of MS2 coat protein” value [4]?
The value was 87.6 nM.

What about the “apparent KD of MS2 coat protein” value (input ligand: none) of the same sequence?
The value was 147 nM.

“AACAUGAGGAUCACCCAUGUCAGGCCGCCGGCCUACAUGAGGAAGGAUAUAGCCUCGAAAAUAGGCUAGAAGGUCCUCAUGAAU [Orises] (Eterna round: R96, puzzle: Same State NG 3)” was tested. Which “apparent KD of MS2 coat protein” value (input ligand: FMN 200 uM) did it give?
Its value is 78.6 nM.

What about the “apparent KD of MS2 coat protein” value [4] of the same sequence?
Its value is 6.35 nM.

And the “apparent KD of MS2 coat protein” value (input ligand: none)?
The value was 23.2 nM.

Which “apparent KD of MS2 coat protein” value [1] does the source give for “AACAUUCUAUCUCAGGAUAUCAUGUCAAAGACAUGAGGAUCACCCAUGUACCAGGAAACUGGUUAUGAGAAGGGAGAUAGAAUGG [Mat - Same State 2 - Mod - D48] (puzzle: Same State 2)” here?
Its value is 182 nM.

What about the “apparent KD of MS2 coat protein” value [2] of the same sequence?
Its value is 195 nM.

And the “apparent KD of MS2 coat protein” value [3]?
The value was 624 nM.

Which “apparent KD of MS2 coat protein” value (input ligand: FMN 200 uM) does the source give for “AACCAGGCCAGAGGAUAUGGGAAAGGAAGUGUACUAGAAGGCUGCAGCCUGAACAAACAUGAGGAUCACCCAUGUAAAACGGUG [PowerStrip SSNG 1.27] (Eterna round: R96, puzzle: Same State NG 1)” here?
The value was 296 nM.

What about the “apparent KD of MS2 coat protein” value [4] of the same sequence?
Its value is 150 nM.

And the “apparent KD of MS2 coat protein” value (input ligand: none)?
Its value is 304 nM.

How did the “apparent KD of MS2 coat protein” value [2] turn out when “AACCUACAUGAGGAUCACCCAUGUAUCUGAGGCACAGGAUAUCGACAGGCAAGACACCUGCGAGAAGGGUGACCUC [Same State 1 - Mod of Vinnie Diatater v.2] (puzzle: Same State 1)” was run?
Its value is 53.6 nM.

For “AACGUUGGCGAGCAGGAUAUCCGCUCAUUAACAUGAGGAUCACCCAUGUUCUGCAAGAUGUGCUAGGAGAAGGGCUGGUCGACAU [Edatar] (puzzle: Same State 2)”, which “apparent KD of MS2 coat protein” value [1] is on record?
Its value is 14.9 nM.

What about the “apparent KD of MS2 coat protein” value [2] of the same sequence?
The value was 18.2 nM.

What about the “apparent KD of MS2 coat protein” value [3] of the same sequence?
The value was 34.8 nM.

Which results are given for “AACUAACAUGAGGAUCACCCAUGUUGCAGCGGUUGAGGAUAUGUGGGUGAAAAUAGCAUGGCAGAAGGCGAGUGUA [SameState1 Malc#25] (Eterna round: R96, puzzle: Same State 1)”?
apparent KD of MS2 coat protein (input ligand: FMN 200 uM): 407 nM; apparent KD of MS2 coat protein [4]: 95.9 nM; apparent KD of MS2 coat protein (input ligand: none): 208 nM

How did the “apparent KD of MS2 coat protein” value (input ligand: FMN 200 uM) turn out when “AAGAAAGACGCAGGAUAUCAGCGCAAAACACGCUGAGAAGGGUGAGACAUGAGGAUCACCCAUGUAACACGGCAAAACGCCGUG [Atinanor] (Eterna round: R96, puzzle: Same State NG 1)” was run?
Its value is 2190 nM.

And the “apparent KD of MS2 coat protein” value [4]?
The value was 122 nM.

What about the “apparent KD of MS2 coat protein” value (input ligand: none) of the same sequence?
Its value is 1310 nM.

For “AAGAAAGACGCAGGAUAUCAGCGCAAACCGCACUGAGAAGGGUGAGACAUGAGGAUCACCCAUGUAACACGGCAAAACGCCGUG [Lausgeledi] (Eterna round: R96, puzzle: Same State NG 1)”, which “apparent KD of MS2 coat protein” value (input ligand: FMN 200 uM) is on record?
The value was 1530 nM.

And the “apparent KD of MS2 coat protein” value [4]?
Its value is 268 nM.

And the “apparent KD of MS2 coat protein” value (input ligand: none)?
The value was 219 nM.

Which results are given for “AAGAAAUCCGCAGGAUAUCCUAAGCCGGACUUAGGAGAAGGGUGGCCACAUGAGGAUCACCCAUGUAAAAGCUGAAUCACAGCC [Vetianeste] (Eterna round: R96, puzzle: Same State NG 1)”?
apparent KD of MS2 coat protein (input ligand: FMN 200 uM): 554 nM; apparent KD of MS2 coat protein [4]: 385 nM; apparent KD of MS2 coat protein (input ligand: none): 497 nM

For “AAGAAGACGAACAAGGAUAUGUCAAAGGAAACAUGAGGAUCACCCAUGUAGAGAUUGGAAAAGAAACAGAAGGUGUACAGAAAGA [JR_SS2_Sub005] (puzzle: Same State 2)”, which “apparent KD of MS2 coat protein” value [1] is on record?
The value was 24.8 nM.

And the “apparent KD of MS2 coat protein” value [2]?
The value was 33.3 nM.

And the “apparent KD of MS2 coat protein” value [3]?
The value was 35.1 nM.

What does the source list for “AAGAGACAUGAGGAUCACCCAUGUUUGAAUAAUAUAGGAUAUAUACCACAUGUAAAAGAAAUAGAAGGAUAAGAAA [Default title] (puzzle: Same State 1)”?
apparent KD of MS2 coat protein [1]: 77 nM; apparent KD of MS2 coat protein [2]: 114 nM; apparent KD of MS2 coat protein [3]: 534 nM

How did the “apparent KD of MS2 coat protein” value (input ligand: FMN 200 uM) turn out when “AAGAUACAUGAGGAUCACCCAUGUCGAGAGAGACGAGGAUAUCUGAAUCGAUUAGAUUACGGAGAAGGCGUGAAAA [LROPPY Same State 1 - v07_deltaG=1.9] (Eterna round: R96, puzzle: Same State 1)” was run?
Its value is 19.6 nM.

What about the “apparent KD of MS2 coat protein” value [4] of the same sequence?
The value was 22.2 nM.

What about the “apparent KD of MS2 coat protein” value (input ligand: none) of the same sequence?
The value was 29.7 nM.

How did the “apparent KD of MS2 coat protein” value [4] turn out when “AAGCUCGUGUGAGGAUAUGCCGCCGUUUCGGCUGCAGAAGGUGCUACGUUACAUGAGGAUCACCCAUGUCUCUGUUGUUUCGUC [salish99_SSNG1_r04_954] (Eterna round: R96, puzzle: Same State NG 1)” was run?
Its value is 22.1 nM.

Source: the supplement of paper PMC9170038
